According to US20210130481A1 (INSERM INSTITUT NATIONAL DE LA SANTE ET DE LA RECHERCHE …, published 2021):
Substitutions are numbered along the chain they refer to. Each block holds one binder with its values, some of them ahead of it.

Legend:
[1] = molecular target: T1, human follicle-stimulating hormone receptor (FSHR) (human, UniProt P23945 18-695); assay: FACS on huFSHR L-cells, 4-fold serial dilutions, goat anti-mouse IgG-APC detection
T1 construct: whole, on cells; also called huFSHR; hFSHR
T1 sequence (looked up): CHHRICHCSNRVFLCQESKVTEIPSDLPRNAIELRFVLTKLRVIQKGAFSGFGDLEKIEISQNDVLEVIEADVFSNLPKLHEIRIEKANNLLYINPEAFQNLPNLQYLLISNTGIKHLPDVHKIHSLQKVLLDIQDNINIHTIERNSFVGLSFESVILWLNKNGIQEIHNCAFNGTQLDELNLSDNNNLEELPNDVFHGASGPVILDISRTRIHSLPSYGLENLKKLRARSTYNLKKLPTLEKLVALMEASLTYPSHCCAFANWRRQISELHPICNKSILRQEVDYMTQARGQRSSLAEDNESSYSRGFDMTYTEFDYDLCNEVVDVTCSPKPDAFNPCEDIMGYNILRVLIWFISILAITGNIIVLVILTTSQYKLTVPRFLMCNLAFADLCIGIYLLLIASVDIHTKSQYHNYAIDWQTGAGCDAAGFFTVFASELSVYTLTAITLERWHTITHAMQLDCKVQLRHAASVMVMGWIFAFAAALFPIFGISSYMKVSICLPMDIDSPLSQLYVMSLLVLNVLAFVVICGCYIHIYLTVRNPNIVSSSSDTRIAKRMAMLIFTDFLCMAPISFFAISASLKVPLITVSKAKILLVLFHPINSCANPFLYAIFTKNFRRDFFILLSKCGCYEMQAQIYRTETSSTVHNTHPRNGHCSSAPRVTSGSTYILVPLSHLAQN
Experimental: (§1) In order to characterize and to check whether the IgGs anti human FSHR retain specificity for huFSHR and whether they bind to this receptor with higher affinity than known antibody, a binding FACS experiment using different IgGs (MABs) concentrations and huFSHR-L-cell and WT L-cells was performed. These cells were QCed for huFSHR expression.
(§2) The HuFSHR L-cells were prepared as previously described [Vannier et al 1996 [15]. Briefly, mouse L cells were co-transfected, using the calcium phosphate precipitate method, with the plasmid encoding the hFSHR (pSG5-hFSHR) and with the plasmid pSV-Neo, a vector which confers resistance to the antibiotic G 418. Neomycin-resistant cells were selected in DMEM supplemented with 10% fetal calf serum and G 418 (geneticin, SIGMA-ALDRICH®) (1 mg/mL). […] The transfected cells were maintained in medium containing G 418 (200 ig/mL) for further studies. The samples were 4-fold serial dilution of monoclonal antibodies and buffer: FACS buffer (1×PBS containing 0.4 g/l human albumin, pH 7.4).
(§3) 100 μl/well of goat anti-mouse IgG conjugated to APC (GAM-APC) (BD™ Bioscience, 1:500 dilution) was added to the cells and incubated for 30 min at 4° C., gently shaking

[2] = molecular target: T1, human follicle-stimulating hormone …; assay: immunofluorescence microscopy on fixed FSHR-L-cells
Experimental: FSHR-L-cells and wild type L-cells were cultured at 37° C. on LabTeck 8-wells (10,000 cells/well) in DMEM containing 10% horse serum, 1 mM glutamine, 1 mM pyruvate in presence of 5% CO₂. When reached 70% confluence, the cells were washed with PBS (three times) and fixed with 4% paraformaldehyde in PBS (15 min at room temperature (RT)). The free aldehyde groups were quenched with 100 mM NH₄Cl in PBS for 15 min at RT (i.e. 20° C.). To block the nonspecific binding of antibodies the cells were incubated 1 hour at RT (i.e. 20° C.) with PBS (pH=7.4) containing 2% goat serum (blocking buffer). FSHR was detected by incubating cells with serial dilutions of the monoclonal primary antibodies 1, 2, 3, 4, and 5 (3 μg/ml−1 μg/ml—0.3 μg/ml−0.1 μg/ml, 0.03 μg/ml, and 0.01 μg/ml of blocking buffer) overnight at 4° C. and with goat anti-mouse IgG-Alexa 555 (Invitrogen #A21137; dilution 1:1000 in blocking buffer) for 1 hour at room temperature. The known FSHR323 antibody (INSERM-Transfert, Paris) was used as a positive IgG2a control (3 μg/ml) as previously described in Radu et al. 2010 [9]. The cell nuclei were detected by incubating cells for 10 min with DAPI (SIGMA-ALDRICH®#32670; dilution 1:1000 in PBS). The slides were mounted in Dako fluorescent mounting medium containing 15 mM sodium azide and examined with an Olympus microscope.

[3] = molecular target: T1, human follicle-stimulating hormone …; assay: FACS on huFSHR L-cells; this end is tied to antibody 2 by Table 2 (1.582/0.08678)
Experimental: as §1, §2, §3

[4] = molecular target: T1, human follicle-stimulating hormone …; assay: peroxidase immunohistochemistry on paraffin sections of human testis; this end is tied to antibody 4 by the example in the sentence (0.2 against 5 µg/ml)
Experimental: Immunohistochemistry: Serial 3-μm-thick sections of human testis tissue (n=30 sections) were cut, attached to SuperFrost slides, deparaffinized with xylene, […] gradually in ethanol and washed with running tap water for 60 min. Access to tissue antigen sites for antibody attachment was enhanced by incubating slides at 90° C. for 40 min with 10 mM citrate buffer, pH 6. After cooling at room temperature (RT) for 20 min, and after each subsequent step, slides were rinsed with PBS. To block endogenous peroxidase activity, the sections were incubated with 6% hydrogen peroxide (15 min at RT, i.e. 20° C.). Sodium borohydride (10 mg/ml PBS) was used to quench free aldehyde groups (15 min, RT i.e. 20° C.). Non-specific binding of antibodies was blocked by incubating slides with 2% goat serum in Phosphate Buffer Saline (PBS) (blocking buffer) at 20° C. (RT) for 2 h. The slides were incubated with serial dilutions of the monoclonal primary antibodies 4, 2, 3 (5 μg/ml−1 μg/ml−0.2 μg/ml−0.04 μg/ml of blocking buffer) in blocking buffer overnight at 4° C. The known FSHR323 antibody (INSERM-Transfert, Paris) was used as a positive IgG2a control. […] The biotinylated goat anti-mouse IgG (Fc-specific) antibody (dilution 1:200), used as secondary antibody, was detected by using streptavidin coupled to horseradish peroxidase (dilution 1:500). […]

[5] = molecular target: T1, human follicle-stimulating hormone …; assay: FACS on huFSHR L-cells; this end is tied to antibody 1 by Table 2 (1.582/0.2112)
Experimental: as §1, §2, §3

EC50 [1]: 0.0893 nM
fold lower labelling concentration than the optimal concentration of FSHR323 [2]: 33 fold
B1: mouse IgG2a anti human FSHR antibody 3 (VH CDR1 of SEQ ID NO 3, VH CDR2 of SEQ ID NO 8) (antibody, V domains shown)
VH: QVQLQQSGAELMKPGASVKISCKATGYTFSKQWLLWVKQRPGHGLEWIGEIFPRNGNTNYNEKFKGKATFTADTSSSTAYMQLSSLTSEDSAVYYCARGPTASGYAMDYWGQGTSVTVSS
VL: DVLMTQTPLSLPVSLGDQASISCRSSQSIVHRNGNTYLEWYLQKPGQSPKLLIYKVSNRFSGVPDRFSGSGSGTDFTLKIIRVEAEDLGVYYCFQGSHVPFTFGSGTKLEIK
notes: Mouse IgG2a heavy constant domains and mouse C kappa; also called sample 3; mouse IgG2 FSHR323 variant

fold improvement of EC50 against the known antibody [3]: 18.2 fold
EC50 [1]: 0.0868 nM
fold lower labelling concentration than the optimal concentration of FSHR323 [2]: 33 fold
B2: mouse IgG2a anti human FSHR antibody 2 (VH CDR1 of SEQ ID NO 2, VH CDR2 of SEQ ID NO 7) (antibody, V domains shown)
VH: B1 VH with K31R, L34V, L35I, F52L
VL: B1 VL
notes: Mouse IgG2a heavy constant domains and mouse C kappa; also called sample 2; mouse IgG2 FSHR323 variant

EC50 [1]: 0.101 nM
fold lower labelling concentration than the optimal concentration of FSHR323 [2]: 33 fold
B3: mouse IgG2a anti human FSHR antibody 5 (VH CDR1 of SEQ ID NO 5, VH CDR2 of SEQ ID NO 10) (antibody, V domains shown)
VH: B1 VH with Q32Y, L34T, L35Q, F52Y
VL: B1 VL
notes: Mouse IgG2a heavy constant domains and mouse C kappa; also called sample 5; mouse IgG2 FSHR323 variant

fold higher affinity than FSHR323 (by optimal IHC dilution) [4]: 25 fold
EC50 [1]: 0.098 nM
fold lower labelling concentration than the optimal concentration of FSHR323 [2]: 33 fold
B4: mouse IgG2a anti human FSHR antibody 4 (VH CDR1 of SEQ ID NO 4, VH CDR2 of SEQ ID NO 9) (antibody, V domains shown)
VH: B1 VH with K31R, Q32S, L34I, F52Y, R54Q, G56Q
VL: B1 VL
notes: Mouse IgG2a heavy constant domains and mouse C kappa; also called sample 4; mouse IgG2 FSHR323 variant

EC50 [1]: 0.211 nM
fold lower labelling concentration than the optimal concentration of FSHR323 [2]: 33 fold
fold improvement of EC50 against the known antibody [5]: 7.5 fold
B5: mouse IgG2a anti human FSHR antibody 1 (VH CDR1 of SEQ ID NO 1, VH CDR2 of SEQ ID NO 6) (antibody, V domains shown)
VH: B1 VH with K31Q, Q32F, W33Y, L34V, L35G, N55T
VL: B1 VL
notes: VH was cloned in frame with mouse IgG2a heavy constant domains and the V kappa with mouse C kappa; also called sample 1; mouse IgG2 FSHR323 variant
